B1: TSN (parent)
chain: FLAAEQDIREEIRKVVQSLEQTAR
B2: PDS5B (parent)
chain: IYKKYALQSAAGKDAAKQIAWIKD

Variants of: B1
Assay: protein stability index of a GFP-peptide fusion (GPS, HEK-293T) (PSI 1-6); higher = more stable
Conditions: c terminus: a fixed tail appended
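Further: lentivirally expressed fusions sorted by FACS into six bins by GFP to DsRed ratio, PSI derived from sequencing read proportions per bin multiplied by bin number.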

Protein stability index of substitutions, site by site:
V16: F 2.77; G 3.36; H 2.26; I 1.86; K 2.38; L 2.2; M 1.73; N 3.03; P 3.24; Q 2.35; R 2.15; S 1.93; T 1.68; W 1.74; Y 2.83
Q17: A 2.47; C 2.3; D 1.78; E 1.77; F 1.58; G 1.92; H 1.98; I 2.06; K 2.52; L 2.42; M 2.6; N 2.15; P 3.32; R 2.02; S 2.78; T 1.84; V 1.87; W 1.72; Y 1.6
S18: A 1.67; C 2.28; D 2.31; E 2.54; F 1.39; G 1.7; H 1.71; I 1.92; K 2.35; L 2.22; M 2.22; N 2.25; P 2.3; Q 2.24; R 2.27; T 2.18; V 2.52; W 1.62; Y 1.57
L19: A 3.72; C 4.16; D 3.6; E 4.16; F 2.14; G 3.51; H 2.96; I 2.41; K 3.44; M 2.33; N 3.8; P 3.9; Q 3.39; R 3.38; S 3.33; T 3.76; V 3.02; W 3.12; Y 3.01
E20: A 3.05; C 2.57; D 2.77; F 2.73; G 2.28; H 2.55; I 2.05; K 2.29; L 2.13; M 2.33; N 2.08; P 3.47; Q 2.35; R 2.44; S 2.57; T 2.3; V 2.29; W 2.64; Y 2.07
Q21: A 2.14; C 2.01; D 1.78; E 1.9; F 1.81; G 2.08; H 1.8; I 2.27; K 1.78; L 1.91; M 1.68; N 1.83; P 2.41; R 2.15; S 1.9; T 1.92; V 1.5; W 1.87; Y 1.64
T22: A 2.38; C 1.84; D 2.5; E 2.48; F 2.42; G 1.24; H 1.67; I 2.61; K 1.95; L 3.07; M 2.57; N 2.36; P 2.16; Q 2.1; R 2.99; S 1.98; V 2.55; W 2.32; Y 1.81
A23: C 1.99; D 1.57; E 2.68; F 2.19; G 2.21; H 2.11; I 2.52; K 1.75; L 2.34; M 1.87; N 1.8; P 2.15; Q 1.96; R 1.87; S 1.8; T 1.76; V 2.13; W 2.1; Y 1.88
R24: A 2.26; C 1.82; D 2.4; E 2.13; F 2.07; G 2.18; H 1.47; I 3.12; K 1.7; L 2.49; M 2.68; N 2.21; P 2.28; Q 1.74; S 2.16; T 2.08; V 1.7; W 1.69; Y 1.94

Variants of: B2
Assay: as above
Conditions: c terminus: a fixed tail appended

Protein stability index: each site, then its substitutions
I1: A 2.62; C 3.19; D 3.71; E 3.79; F 1.68; G 2.81; H 3.36; K 2.75; L 2.12; M 2.08; N 2.41; P 2.77; Q 3.23; R 2.5; S 2.63; T 3.11; V 2.61; W 2.14; Y 2.1
Y2: A 2.32; C 2.96; D 3.75; E 3.9; F 1.67; G 3.38; H 3.02; I 1.77; K 2.87; L 2.34; M 4.12; N 2.98; P 3.19; Q 2.5; R 2.38; S 2.84; T 2.98; V 2.27; W 2.32
K3: A 2.26; C 1.51; D 3.43; E 2.88; F 2.15; G 2.24; H 2.36; I 2.93; L 2.4; M 1.72; N 2.27; P 2.65; Q 2.33; R 2.56; S 2.48; T 2.15; V 1.75; W 2.95; Y 2.19
K4: A 2.13; C 1.61; D 3.24; E 2.68; F 2.32; G 2.61; H 2.39; I 2.44; L 1.75; M 1.95; N 2.68; P 2.71; Q 2.6; R 2.25; S 2.23; T 2.7; V 1.55; W 1.35; Y 1.84
Y5: A 2.78; C 1.75; D 3.79; E 3.09; F 1.92; G 2.82; H 2.46; I 2.26; K 2.93; L 2.36; M 1.91; N 2.93; P 3.63; Q 2.99; R 2.43; S 2.65; T 3.36; V 2.89; W 1.98
A6: C 1.85; D 2.32; E 3.2; F 2.49; G 2.88; H 1.97; I 2.12; K 2.18; L 1.86; M 1.8; N 2.18; P 3.02; Q 2.85; R 2.55; S 2.49; T 2.39; V 1.82; W 2; Y 1.52
L7: A 2.5; C 1.93; D 3.16; E 2.76; F 1.68; G 2.42; H 2.6; I 1.95; K 2.55; M 2.32; N 2.81; P 2.92; Q 3.06; R 2.3; S 2.68; T 2.63; V 2.32; W 1.69; Y 2.04
Q8: A 2.4; C 1.29; D 2.27; E 2.67; F 3.35; G 2.01; H 1.83; I 2.7; K 2.35; L 1.85; M 2.06; N 2.06; P 2.72; R 2.21; S 2.25; T 1.84; V 2.17; W 1.92; Y 1.69
S9: A 2.16; C 2; D 3.27; E 2.73; F 2; G 2.17; H 2.38; I 1.93; K 1.87; L 1.76; M 2.44; N 2.2; P 2.17; Q 2.79; R 2.29

From the supplement of paper PMC10567573
